This data set has as its target ΔC SSB (Escherichia coli, UniProt P0AGE0). Briefly: EMSA; additional complexes at higher SSB:DNA ratios; EMSA: 20 mM Tris-HCl pH 8.0, 50 mM NaCl, 5% glycerol, 50 µg/ml BSA, 4 °C, 30 min, 1 pmol DNA with 0.2, 2 or 10 pmol SSB in 15 µl; fluorescence: Buffer A (composition not given in the material) with ~50 or ~200 mM NaCl. Conditions: protein: recombinant; chain copies: 4; label: 5'-32P.

Sequence of ΔC SSB (P0AGE0 1-113, tags or fused parts left off): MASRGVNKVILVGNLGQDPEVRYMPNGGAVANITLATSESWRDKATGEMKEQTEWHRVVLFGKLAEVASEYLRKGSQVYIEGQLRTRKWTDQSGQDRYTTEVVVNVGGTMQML

B1: 79mer ssDNA (ssDNA)
DNA: GCACTAGTGCGGATAGCCCCGTGTTGTTGTCTGACCCCCGACCCCGACGGCAATGCGGGGCAATCCCCTGGAGGCCTGC
Regarding B1, the binding result is “binds”.

(Values after article PMC3236198.)
